This passage reports stoichiometry N results from article PMC8600288.

For the assay, the target named is AlyA3, PL17 alginate lyase from Zobellia galactanivorans DsijT (recombinant, His-tagged, without signal peptide) (Zobellia galactanivorans DsijT). Nature of the assay: SEC.

Consider “AlyA3, PL17 alginate lyase from Zobellia galactanivorans DsijT (recombinant, His-tagged, without signal peptide) (enzyme)”, for which the stoichiometry N stood at 2.

The term stoichiometry N denotes a count of units in the complex or per binding partner.
